Source: the NTF2 design screens of Basanta et al. (2020)

assay: protease stability score; higher = more stable; yeast display proteolysis, trypsin and chymotrypsin;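 also: log10 excess protease needed over predicted unfolded state with 0 meaning unfolded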

| Sequence | protease stability score |
| --- | --- |
| DHDLNQQAQQWVRNFNNGDEDKLQDYADPNVRFQIGDEQVHGREEYKSRVKKKRKHARFRIRVREIDAQGEHVHVKADIIQNINGRPMDDHVIFHFEVRNGKLKSLKLRVDPEKQRELEK | 0.417 |
| DEKKVEQAEQWIRNLQTGDPDKANDMFDPNAEITVGDHVVHGREEFKDRMEKDMRNMRIKFEDVHASVKNGRVTVSVDQVDTNNGKPKRYRYNLTIDLRNGKVTEIVNKEDK | 0.066 |
| DEEHAKRINENIKHGNWDELVKQFDENAKLVIGDKEYHGREEIKKAMDLFKKHADHFEIKSYDNQGEKMSATYVIQVNGKRATVKMRVTFQGDKVKRYELHATSEHNERILKEAIE | 1.12 |
| DHQDARKVRKNFEDNNFESFKSMFDENAEVRVGDKELHGKENIRDQIRKEKEQIDHVQYRSFHVQGEKVDLKYEFQVNGRHIDVRASAELKNGRIKTHSVEVTTEEDKKLLKEVLQ | -0.271 |
| DEHELREILDKANEAWKRNDPDEMVKQADKDVEVKIGDKDFHGREEAHEAMKELHDRADHISIRDYDASGNKARIHMYIVVNGRRVDFVVIIVVRNGRIQKIELNVRDEKAKSNLKQ | 1.09 |
| DDQELAEDAQRQFQEVLKTGDPKRANELMDEDARLEVGDTQLHGRERVAKHLSDLRKQADHIDVRVDTIRVHNGRVDADVRIRITKNGQNREFRARLYFTVQGDKVKMKRLQES | 1.38 |
| DEDTNREQVKRFEEAQQENDPDKWMDNLDENARLDVGDTRVHGSKEIMKHFKRLNDKIDHWRVQSFEFHNGRMKLNAVARVNGKRLKMQFQANVHNGKFTELRMDPDAVRKITS | 0.413 |
| EEDVVEQLKDWYRAVNSGDEERLTQLMDPNAKAEVGDKRVHGMDEYARQQRTRNEKLRFQINSIEIRAKGNHVSVNVDANYHFDGQPRRDTWHIRMQFHNGRLKTLSVTMDPTLLREMEK | 0.931 |
| DEEAEHVARELQKAQETGNPKRARHMMDENARIQVGDHRIHGMSRYLEDLRRKQEEIRIEFKRVSHNVNGNRVVINFLAVYEVNGHPVHLRIQLSFEIHNGRAQTMDVNISEQQMRDIER | -0.022 |
| DERNKKVLRQFMHAQMRGNPEKAKKLADPNAKFQVGDKTVHGMDEWVRQLDRKKKQIRFEVRVDSVRVHGDNVTMHVEYRATYNGKPYSDKVDYSARLHNGKITKLSAEMDPEFQRELDT | 0.296 |
| DEEDRRKAKEAAERNDWKHFSDQMDEDVRVLVGDKRFHGREEAKQFVQKVEDRADTQSVDSVDVQGNQVDLDMKLNINGNDVRAQFEFYFHNGRIKEIKVTFTDPREERQFKELIK | 1.25 |
| DESEQASEVAHEMRHLYRKNDEDRFRELMDENVRARVGDKEYHGREDVLRMFQHEMRTADHMDVQVNDFRKEGDSIIIHADLKYVSNGNDRTRRLVFVLEVNGDTITLLQQQDQ | 0.096 |
| DDDKKAKNWMERMLHIFREGDEDSYKNNFDENAEINIGDKTYHGRDRVQRLFSEIKHNVDHLKIQFQDFSTHNGRWVLIFEYSRTHNGHTEQNVIVVNMEQHNGKVVVKSMREK | 0.636 |
| DDDEARHRAEEIVRQMQSNNWKDIDKLMDKNVQIRVGDKRYTGRTRARKFIKTIADRVDHAHVVNVTVQGNKARFEFIARFDGEHVRMQMVFELHNGHAKKVEVDPEELKQLKK | 1.04 |
| DEELNHQVHSFIKNVRQGNPKEAVKQADPNVRVQVGNKVINGRENMEKWYREMKREMRIVIKVDRIRAHNGRAEATYKVEYDVNGKPYTNTNSMHVEAHNGRIVSIYEDFDETHLREVQS | -0.367 |
| DEEKLRKDMEEAFRLVTQGNPEEFADRFRDNPRMHVGDKEYHGREEARKAITTLVKHIDRIELHHIDIQGDKAEVRYRATVNGKRADHVMRIEANNGQLQRASVDPDLVTSVLR | -0.347 |
| DHEAKDVFEELLRRMKSGDEDEMKKLVDKNVRYTVGDKTLHGQEEIARHWYEQVKDMRIDIKVKDIKVHNGRVDVKFTFRHEHNGNPDSDKRRVNVEARNGKMQAVDDQKDS | 0.148 |
| DHEAEKRIKKWVDAIHTGDEEQLKRLADPNVKVNVGNYSVRGRENLADMVSRMRDEIRLTYRDVKMDVTGDHARMDADVERDHNGRPERFELKANFRWRNGKITEIDAHWHQ | 1.42 |
| DDKKAQDFARKFADNLRTGNERQWEKMFDENVRIKYGDKTLHGREVARKEARTFHEQVDHMEVRSITAQGNQLVIMFEVKHNGRTDRMVWRAKVENGKIQHQTVTSQ | -0.084 |
| EESAIERLKEAMKAFDHGDEDEWRQQFDKNARVQIGDKSVRGRDNMAKQIKKEKEKMRVEVKLESVHVHNGHVTADADYKEQKNGRPTSSRFQLHATFKGDKFKNMVWHKDS | -0.422 |
| DEDKHAQDHMDQLTRLRKHGNFEKLANMADEDVEVHYGDKQVHGREQVVKTIKSEADDVDHFDVKVQEYHVQGDHIHVVNEFTLERNGQYRTDEQQFTVQITNGSIRIKNMTKK | -0.475 |
| DEKDKARKLNDRVREVMETGDPRKFTELADPNARYIIGDKEFHGTENITKYAKTLRDQVDHVDVKVDHVNVQGNKVVADMKFTAEKNGSRLHYRMIVVAVIQGDNVNAQQVHFK | 1.18 |
| DEEELERQAQELVDAWQTNDESKIRHLVDENARVQVGDTTWKGREKAEEQVQEFKKQVDRLRVISVRVHGENIVVHVEIVHNGKHFSLTIVIEMHNGKVKHISVDPKAVEIATK | 0.497 |
| DENVRRLVEHLIRAVQSNDPDKVVENLDPNASIHVGEKRYHGEDRAKDMYETEKNQMRVQVRLTQLHVQGNHAKLRETVLIDHNGRPVNVSLDMSLIAHNGRVHEIHETVPEENRKERKG | -0.029 |
| DEELKKVVDRMMKAITEGNPDKVRHLMDKDVKVDIGDKRIQGNEQNARDNEKSQNHLEESLDVKRVDNKGDKATVHLTVHVNHNGKPETFKLDIHVQAHNGKVKNMNFQKRP | -0.076 |
